This passage reports ratio to parent, other: gp120 pixels/p24 pixels and neutralization of HIV-1 AD8 virus in TZM-bl cells (luciferase), C34 IC50 against that for WT virus (log10 decrease against WT) results from paper PMC3643854.

Test [1] addresses HIV-1 AD8 gp120 surface glycoprotein. As to the kind of experiment: immunoprecipitation of pulse-chase biosynthetically labelled Env from cell lysates (c) and supernatants (s), SDS-PAGE and phosphorimaging. The following applies: transfected 293T cells; cellular Env was analysed 5 h post synthesis; parent: 1.
For test [2] the target is unchanged. Nature of the test: Western blotting of pelleted virions (virion-associated gp120 normalised to p24). The following applies: virions from 293T cells transfected with pAD8 proviral clones; virions were analysed at 48 h posttransfection; parent: 2.16. (In general: Immunoblotting shows a protein as a band on a membrane.)
Test [3] addresses HIV-1 AD8 gp41 W596L/K601H (HIV-1 AD8).
Test [4] has as its target HIV-1 AD8 gp41 W596L/K601H/D674E (HIV-1 AD8).

For the substance “HIV-1 AD8 gp41 transmembrane glycoprotein, wild type W596L; K601H”, in test [1], the ratio to parent stood at 3.37. Moreover, the other: gp120 pixels/p24 pixels in test [2] was 0.93.
Regarding “HIV-1 AD8 gp41 transmembrane glycoprotein, wild type WL/KH/DN”, in test [1], the ratio to parent stood at 3.96. For the same substance, the other: gp120 pixels/p24 pixels in test [2] is 0.67.
Take C34 fusion inhibitor peptide: the neutralization of HIV-1 AD8 virus in TZM-bl cells (luciferase), C34 IC50 against that for WT virus (log10 decrease against WT) in test [3] and in test [4] was 0.5 throughout.
Regarding “HIV-1 AD8 gp41 transmembrane glycoprotein, wild type ΔTW/WL/KH/DN”, in test [1], the ratio to parent was 4.13. The other: gp120 pixels/p24 pixels in test [2] is 0.6.
Consider “HIV-1 AD8 gp41 transmembrane glycoprotein, wild type W596L; K601H; D674E”, for which, in test [1], the ratio to parent was found to be 3.59. Also, the other: gp120 pixels/p24 pixels in test [2] is 1.07.
Consider “HIV-1 AD8 gp41 transmembrane glycoprotein, wild type WL/KH/DG”, for which the ratio to parent in test [1] was 5.36. Besides, the other: gp120 pixels/p24 pixels in test [2] came to 0.8.
